Results: publication PMC5294454, “Enhanced delignification of steam-pretreated poplar by a bacterial laccase” (Scientific Reports, 2017)

What was measured:
[1] = substrate: COc1cccc(OC)c1O; experiment: purified protein; assay type: biochemical, Amycolatopsis sp. ATCC 39116; conditions: O2, 50 mM Tris-HCl, pH 8, 30 °C, 0.1 μM sLac
[2] = substrate: CCn1c(=NN=c2sc3cc(S(=O)(=O)O)ccc3n2CC)sc2cc(S(=O)(=O)O)ccc21; experiment: purified protein; conditions: O2, 50 mM sodium acetate, pH 5, 30 °C, 0.1 μM sLac

B1: sLac (Amycolatopsis sp. ATCC 39116) (protein)
chain: QGTTRRITMYAEKISDELYGYGLAPGGATVPGPVLEMWEGDTLEIDLVNTTDRVLSLHPHGVDYDVNSDGTLMNGSAVMPGQTRRYTWRSHVGYRRADGSWAEGTAGYWHYHDHAMGTEHGTEGVLKGLYGALVVRRQGDLLPKRQFTVVFNDMMINNRAHHDAPTFEANLGERVEWIAIGHGSNFHTFHLHGHRWLDNRTGMRTSEYDPSPLIDIKDLNPGVSFGFQVIAGEGVGPGMWMYHCHVQNHSDMGMAGMFLVRNADGTMPAGVHEH
notes: residues 6-279, putative N-terminal TAT signal removed, TEV-cleavable N-terminal poly-His tag (cleavage not mentioned), pET15a(+), E. coli Rosetta BL21(DE3)pLysS; forward primer […] encodes MQGTTRRI; reverse primer encodes C-terminal ...VHEH
Km [1]: 3 ± 0.1 mM | kcat [1]: 0.5 ± 0.07 s⁻¹ | Km [2]: 0.50 ± 0.04 mM | kcat [2]: 7 ± 0.3 s⁻¹
